{"source": "patent US20240398993A1", "about": "“SMALL MOLECULE-REGULATED GENE EXPRESSION SYSTEM” (Outpace Bio, Inc., priority 2021, published 2024)", "molecules": {"B1": {"name": "ANR-SPOP: E3 ligase SPOP fused to the apo-NS3a reader ANR, SEQ ID NO: 157, expressed from IPV18 or TFV23 (protein)", "chain": "GELDELVYLLDGPGYDPIHSDVVTRGGSHLFNFSGSSGGSGVNISGQNTMNMVKVPECRLADELGGLWENSRFTDCCLCVAGQEFQAHKAILAARSPVFSAMFEHEMEESKKNRVEINDVEPEVFKEMMCFIYTGKAPNLDKMADDLLAAADKYALERLKVMCEDALCSNLSVENAAEILILADLHSADQLKTQAVDFINYHASDVLETSGWKSMVVSHPHLVAEAYRSLASAQCPFLGPPRKRLKQS", "modifications": "Synthetic polypeptide ANR-SPOP"}, "B2": {"name": "p65: transcriptional activation domain fused to DNCR2 (SEQ ID NO: 51) (protein)", "chain": "SSDEEEARELIERAKEAAERAQEAAERTGDPRVRELARELKRLAQEAAEEVKRDPSSSDVNEALKLIVEAIEAAVDALEAAERTGDPEVRELARELVRLAVEAAEEVQRNPSSSDVNEALHSIVYAIEAAIFALEAAERTGDPEVRELARELVRLAVEAAEEVQRNPSSRNVEHALMRIVLAIYLAEENLREAEESGDPEKREKARERVREAVERAEEVQRDPSGWLNHSGGGSGVDGSPKKKRKVGSVLPQAPAPAPAPAMVSALAQAPAPVPVLAPGPPQAVAPPAPKPTQAGEGTLSEALLQLQFDDEDLGALLGNSTDPAVFTDLASVDNSEFQQLLNQGIPVAPHTTEPMLMEYPEAITRLVTGAQRPPDPAPAPLGAPGLPNGLLSGDEDFSSIADMDFSALL", "modifications": "Synthetic polypeptide DNCR2-p65mini"}, "B3": {"name": "p65-HSF1: transcriptional activation domain of all-human components fused to DNCR2 (SEQ ID NO: 52) (protein)", "chain": "SSDEEEARELIERAKEAAERAQEAAERTGDPRVRELARELKRLAQEAAEEVKRDPSSSDVNEALKLIVEAIEAAVDALEAAERTGDPEVRELARELVRLAVEAAEEVQRNPSSSDVNEALHSIVYAIEAAIFALEAAERTGDPEVRELARELVRLAVEAAEEVQRNPSSRNVEHALMRIVLAIYLAEENLREAEESGDPEKREKARERVREAVERAEEVQRDPSGWLNHSGGGSGVDGSPKKKRKVGSVLPQAPAPAPAPAMVSALAQAPAPVPVLAPGPPQAVAPPAPKPTQAGEGTLSEALLQLQFDDEDLGALLGNSTDPAVFTDLASVDNSEFQQLLNQGIPVAPHTTEPMLMEYPEAITRLVTGAQRPPDPAPAPLGAPGLPNGLLSGDEDFSSIADMDFSALLSGSGGFSVDTSALLDLFSPSVTVPDMSLPDLDSSLASIQELLSPQEPPRPPEAENSSPDSGKQLVHYTAQPLFLLDPGSVDTGSNDLPVLFELGEGSYFSEGDGFAEDPTISLLTGSEPPKAKDPTVS", "modifications": "Synthetic polypeptide DNCR2-p65mini-HSF1"}, "B4": {"name": "ZFHIV2: zinc finger DNA binding domain fused to NS3a (NS3a-ZFHIV2, SEQ ID NO: 71) (protein)", "chain": "KKKGSVVIVGRINLSGDTAYAQQTRGEEGCQETSQTGRDKNQVEGEVQIVSTATQTFLATSINGVLWTVYHGAGTRTIASPKGPVTQMYTNVDKDLVGWQAPQGSRSLTPCTCGSSDLYLVTRHADVIPVRRRGDSRGSLLSPRPISYLKGSAGGPLLCPAGHAVGIFRAAVSTRGVAKAVDFIPVESLETTMRSPGSGAAASGGGGSGGGGSGGTPPHERPFQCRICMRNFSNNAMLVRHTRTHTGEKPFQCRICMRNFSLSQTLQRHLRTHTGEKPFQCRICMRNFSMQGNLSRHLKTHLRGS", "modifications": "Synthetic polypeptide NS3a-ZFHIV2"}}, "key": {"[1]": {"system": "HEK293 cells", "assay": "Danoprevir-induced EGFP reporter expression in transduced HEK293 cells, flow cytometry", "format": "cell-based"}, "[2]": {"system": "Jurkat cells", "assay": "Danoprevir-induced GFP/EGFP reporter expression in transduced Jurkat cells, flow cytometry", "format": "cell-based", "conditions": "for induced GFP expression (gMFI): 500 nM danoprevir 24 hours, ZF DBD-NS3a / DNCR2-TAD panel, YB_TATA minimal promoter, FIG. 11"}, "[3]": {"conditions": "titration of danoprevir, IPV16/TFV1 versus IPV16/TFV23, FIG. 18"}}, "note": "Entries after “also recorded” stand apart in the source; their conditions may differ."}
{"molecule": "CC(C)(C)OC(=O)N[C@H]1CCCCC/C=C\\[C@@H]2C[C@@]2(C(=O)NS(=O)(=O)C2CC2)NC(=O)[C@@H]2C[C@@H](OC(=O)N3Cc4cccc(F)c4C3)CN2C1=O", "note": "[danoprevir, (2R,6S,12Z,13aS,14aR,16aS)-14a-[(Cyclopropylsulfonyl)carbamoyl]-6-({[(2-methyl-2-propanyl)oxy]carbonyl}amino)-5,16-dioxo-1,2,3,5,6,7,8,9,10,11,13a,14,14a,15,16,16a-hexadecahydrocyclopropa[e]pyrrolo[1,2-a][1,4]diazacyclopentadecin-2-yl 4-fluoro-1,3-dihydro-2H-isoindole-2-carboxylate, reference compound]", "values": [{"measurement": "danoprevir EC50 of EGFP expression", "setting": "[1]; [3]", "value": "equivalent"}, {"measurement": "maximal EGFP expression levels", "setting": "[1]; [3]", "value": "equivalent"}]}
{"molecule": "B1", "values": [{"measurement": "maximal danoprevir-induced EGFP expression, element expressed inducibly from the inducible promoter vector", "setting": "[1]; 100 nM danoprevir, HEK293 cells, plot 1725", "value": "reduced the maximal danoprevir-induced EGFP expression"}, {"measurement": "danoprevir-induced EGFP expression, element expressed from the transcription factor vector", "setting": "[1]; 100 nM danoprevir, HEK293 cells, plot 1730", "value": "maintaining high danoprevir-induced expression"}, {"measurement": "background EGFP expression level, fold lower than the system without ANR-SPOP", "setting": "[1]; DMSO, IPV16/TFV23 versus IPV16/TFV1, plot 1800", "value": "about 3 times"}, {"measurement": "background (leaky) EGFP expression, DMSO", "setting": "[1]; HEK293 cells, compared to wild type cells, FIG. 16-18", "value": "effectively removed any leaky background expression of EGFP; also recorded: indistinguishable from wild type HEK293 cells"}]}
{"molecule": "B2", "values": [{"measurement": "induced GFP expression (gMFI)", "setting": "[2]", "value": "very weak"}]}
{"molecule": "B3", "values": [{"measurement": "induced GFP expression (gMFI)", "setting": "[2]", "value": "moderate induction levels"}]}
{"molecule": "B4", "values": [{"measurement": "induced GFP expression (gMFI)", "setting": "[2]", "value": "highest induced GFP levels"}, {"measurement": "induction of GFP expression (gMFI), 12×RE versus 6×RE", "setting": "[2]; DNCR2-VPRmini, FIG. 12", "value": "lower induction"}, {"measurement": "induction of GFP expression (gMFI), leucine zipper (LZ) between NS3a and ZF versus direct fusion", "setting": "[2]; DNCR2-VPRmini, TFV19, TFV20, FIG. 12", "value": "higher maximal induction"}]}
